Reference: patent publication US20240117018A1

Key:
Experiment in all cases: cell-based or functional assay
[1] = molecular target: Env of HIV-1 pseudovirus 1394C9G1(Rev-) (HIV-1)
[2] = molecular target: Env of HIV-1 pseudovirus 6244_13_B5_4576 (HIV-1)
[3] = molecular target: Env of HIV-1 pseudovirus AC10.0.29 (HIV-1)
[4] = molecular target: Env of HIV-1 pseudovirus CAP210.2.00.E8 (HIV-1)
[5] = molecular target: Env of HIV-1 pseudovirus CNE30 (HIV-1)
[6] = molecular target: Env of HIV-1 pseudovirus Ce0393_C3 (HIV-1)
[7] = molecular target: Env of HIV-1 pseudovirus Ce0682_E4 (HIV-1)
[8] = molecular target: Env of HIV-1 pseudovirus Ce1172_H1 (HIV-1)
[9] = molecular target: Env of HIV-1 pseudovirus Ce2010_F5 (HIV-1)
[10] = molecular target: Env of HIV-1 pseudovirus HIV-0013095-2.11 (HIV-1)
[11] = molecular target: Env of HIV-1 pseudovirus HIV-001428-2.42 (HIV-1)
[12] = molecular target: Env of HIV-1 pseudovirus HIV-16845-2.22 (HIV-1)
[13] = molecular target: Env of HIV-1 pseudovirus PVO.4 (HIV-1)
[14] = molecular target: Env of HIV-1 pseudovirus Q461.e2 (HIV-1)
[15] = molecular target: Env of HIV-1 pseudovirus Q842.d12 (HIV-1)
[16] = molecular target: Env of HIV-1 pseudovirus SC422661.8 (HIV-1)
[17] = molecular target: Env of HIV-1 pseudovirus T257-31 (HIV-1)
[18] = molecular target: Env of HIV-1 pseudovirus THRO4156.18 (HIV-1)
[19] = molecular target: Env of HIV-1 pseudovirus WEAU_d15_410_787 (HIV-1)
[20] = molecular target: Env of HIV-1 pseudovirus ZM109F.PB4 (HIV-1)
[21] = molecular target: Env of HIV-1 pseudovirus ZM197M.PB7 (HIV-1)
[22] = molecular target: HIV-1 Env pseudovirus 3103.v3.c10 (HIV-1)
[23] = molecular target: HIV-1 Env pseudovirus 6811.v7.c18 (HIV-1)
[24] = molecular target: HIV-1 Env pseudovirus BJOX009000.02.4 (HIV-1)
[25] = molecular target: HIV-1 Env pseudovirus P1981_C5_3 (HIV-1)
[26] = molecular target: HIV-1 Env pseudovirus T251-18 (HIV-1)
[27] = molecular target: HIV-1 Env pseudovirus X1254_c3 (HIV-1)

Substance: 10-1074 (antibody)
- IC50 [1]: 0.05 mg/L
- IC80 [1]: 0.191 mg/L
- IC50 [2]: 0.202 mg/L
- IC80 [2]: 0.922 mg/L
- IC50 [3]: 0.022 mg/L
- IC80 [3]: 0.11 mg/L
- IC50 [4]: > 50 mg/L
- IC80 [4]: > 50 mg/L
- IC50 [5]: 0.363 mg/L
- IC80 [5]: 1.2 mg/L
- IC50 [6]: > 50 mg/L
- IC80 [6]: > 50 mg/L
- IC50 [7]: > 50 mg/L
- IC80 [7]: > 50 mg/L
- IC50 [8]: 0.047 mg/L
- IC80 [8]: 0.166 mg/L
- IC50 [9]: > 50 mg/L
- IC80 [9]: > 50 mg/L
- IC50 [10]: > 50 mg/L
- IC80 [10]: > 50 mg/L
- IC50 [11]: 0.044 mg/L
- IC80 [11]: 0.261 mg/L
- IC50 [12]: 1.17 mg/L
- IC80 [12]: 5.83 mg/L
- IC50 [13]: 0.074 mg/L
- IC80 [13]: 0.36 mg/L
- IC50 [14]: > 50 mg/L
- IC80 [14]: > 50 mg/L
- IC50 [15]: > 50 mg/L
- IC80 [15]: > 50 mg/L
- IC50 [16]: 0.091 mg/L
- IC80 [16]: 0.418 mg/L
- IC50 [17]: > 50 mg/L
- IC80 [17]: > 50 mg/L
- IC50 [18]: > 50 mg/L
- IC80 [18]: > 50 mg/L
- IC50 [19]: 0.104 mg/L
- IC80 [19]: 0.375 mg/L
- IC50 [20]: > 50 mg/L
- IC80 [20]: > 50 mg/L
- IC50 [21]: > 50 mg/L
- IC80 [21]: > 50 mg/L

Substance: PG9 (antibody)
- IC50 [1]: 0.029 mg/L
- IC80 [1]: 0.114 mg/L
- IC50 [2]: > 50 mg/L
- IC80 [2]: > 50 mg/L
- IC50 [3]: 0.117 mg/L
- IC80 [3]: 0.845 mg/L
- IC50 [4]: 0.04 mg/L
- IC80 [4]: 0.173 mg/L
- IC50 [5]: > 50 mg/L
- IC80 [5]: > 50 mg/L
- IC50 [6]: 0.02 mg/L
- IC80 [6]: 0.055 mg/L
- IC50 [7]: 0.196 mg/L
- IC80 [7]: 0.698 mg/L
- IC50 [8]: 0.07 mg/L
- IC80 [8]: 0.206 mg/L
- IC50 [9]: > 50 mg/L
- IC80 [9]: > 50 mg/L
- IC50 [10]: 0.01 mg/L
- IC80 [10]: 0.03 mg/L
- IC50 [11]: 0.101 mg/L
- IC80 [11]: 0.25 mg/L
- IC50 [12]: 4.4 mg/L
- IC80 [12]: > 50 mg/L
- IC50 [13]: 10.6 mg/L
- IC80 [13]: > 50 mg/L
- IC50 [14]: 1.48 mg/L
- IC80 [14]: 8.72 mg/L
- IC50 [15]: 0.023 mg/L
- IC80 [15]: 0.081 mg/L
- IC50 [16]: 0.553 mg/L
- IC80 [16]: 7.05 mg/L
- IC50 [17]: 0.037 mg/L
- IC80 [17]: 0.124 mg/L
- IC50 [18]: 24.5 mg/L
- IC80 [18]: > 50 mg/L
- IC50 [19]: 4.08 mg/L
- IC80 [19]: > 50 mg/L
- IC50 [20]: 0.256 mg/L
- IC80 [20]: 6.69 mg/L
- IC50 [21]: 0.899 mg/L
- IC80 [21]: 4.52 mg/L

Substance: PG16 (antibody)
- IC50 [1]: 0.008 mg/L
- IC80 [1]: 0.056 mg/L
- IC50 [2]: > 50 mg/L
- IC80 [2]: > 50 mg/L
- IC50 [3]: 0.023 mg/L
- IC80 [3]: 0.417 mg/L
- IC50 [4]: 0.01 mg/L
- IC80 [4]: 0.042 mg/L
- IC50 [5]: > 50 mg/L
- IC80 [5]: > 50 mg/L
- IC50 [6]: 0.002 mg/L
- IC80 [6]: 0.006 mg/L
- IC50 [7]: 0.026 mg/L
- IC80 [7]: 0.202 mg/L
- IC50 [8]: 0.007 mg/L
- IC80 [8]: 0.037 mg/L
- IC50 [9]: > 50 mg/L
- IC80 [9]: > 50 mg/L
- IC50 [10]: 0.002 mg/L
- IC80 [10]: 0.006 mg/L
- IC50 [11]: 0.039 mg/L
- IC80 [11]: 0.25 mg/L
- IC50 [12]: 3.13 mg/L
- IC80 [12]: > 50 mg/L
- IC50 [13]: 15.3 mg/L
- IC80 [13]: > 50 mg/L
- IC50 [14]: 1.75 mg/L
- IC80 [14]: > 50 mg/L
- IC50 [15]: 0.032 mg/L
- IC80 [15]: > 0.25 mg/L
- IC50 [16]: 0.858 mg/L
- IC80 [16]: > 50 mg/L
- IC50 [17]: 0.007 mg/L
- IC80 [17]: 0.021 mg/L
- IC50 [18]: 6.83 mg/L
- IC80 [18]: > 50 mg/L
- IC50 [19]: 0.435 mg/L
- IC80 [19]: > 50 mg/L
- IC50 [20]: 7.03 mg/L
- IC80 [20]: > 50 mg/L
- IC50 [21]: 1.5 mg/L
- IC80 [21]: 22.8 mg/L

Substance: 10E8 (antibody)
- IC50 [1]: 0.963 mg/L
- IC80 [1]: 5.33 mg/L
- IC50 [2]: 0.086 mg/L
- IC80 [2]: 0.809 mg/L
- IC50 [3]: 0.132 mg/L
- IC80 [3]: 1.53 mg/L
- IC50 [4]: 0.798 mg/L
- IC80 [4]: 3.89 mg/L
- IC50 [5]: 1.56 mg/L
- IC80 [5]: 9.84 mg/L
- IC50 [6]: 1.18 mg/L
- IC80 [6]: 7.42 mg/L
- IC50 [7]: 1.22 mg/L
- IC80 [7]: 7.71 mg/L
- IC50 [8]: 0.722 mg/L
- IC80 [8]: 4.82 mg/L
- IC50 [9]: 1.84 mg/L
- IC80 [9]: 8.61 mg/L
- IC50 [10]: 0.031 mg/L
- IC80 [10]: 0.213 mg/L
- IC50 [11]: 0.809 mg/L
- IC80 [11]: 7.3 mg/L
- IC50 [12]: 0.068 mg/L
- IC80 [12]: 0.495 mg/L
- IC50 [13]: 0.747 mg/L
- IC80 [13]: > 10 mg/L
- IC50 [14]: 2.11 mg/L
- IC80 [14]: > 10 mg/L
- IC50 [15]: 4.19 mg/L
- IC80 [15]: > 10 mg/L
- IC50 [16]: 0.445 mg/L
- IC80 [16]: 2.71 mg/L
- IC50 [17]: 0.88 mg/L
- IC80 [17]: 5.78 mg/L
- IC50 [18]: 0.156 mg/L
- IC80 [18]: 0.884 mg/L
- IC50 [19]: > 10 mg/L
- IC80 [19]: > 10 mg/L
- IC50 [20]: 0.295 mg/L
- IC80 [20]: 1.89 mg/L
- IC50 [21]: 0.148 mg/L
- IC80 [21]: 0.802 mg/L

Substance: 8ANC195 (antibody)
- IC50 (Titer in TZM.bl cells) [22]: 48.1 mg/L
- IC80 (Titer in TZM.bl cells) [22]: > 50 mg/L
- IC50 (Titer in TZM.bl cells) [23]: 5.34 mg/L
- IC80 (Titer in TZM.bl cells) [23]: 27.6 mg/L
- IC50 (Titer in TZM.bl cells) [24]: 0.64 mg/L
- IC80 (Titer in TZM.bl cells) [24]: 3.09 mg/L
- IC50 (Titer in TZM.bl cells) [25]: 0.14 mg/L
- IC80 (Titer in TZM.bl cells) [25]: 1.15 mg/L
- IC50 (Titer in TZM.bl cells) [26]: 1.51 mg/L
- IC80 (Titer in TZM.bl cells) [26]: 1.51 mg/L
- IC50 (Titer in TZM.bl cells) [27]: 6.95 mg/L
- IC80 (Titer in TZM.bl cells) [27]: 6.95 mg/L

Substance: VRC07 (antibody)
- IC50 (Titer in TZM.bl cells) [22]: 0.675 mg/L
- IC80 (Titer in TZM.bl cells) [22]: 1.95 mg/L
- IC50 (Titer in TZM.bl cells) [23]: 0.093 mg/L
- IC80 (Titer in TZM.bl cells) [23]: 0.435 mg/L
- IC50 (Titer in TZM.bl cells) [24]: 0.806 mg/L
- IC80 (Titer in TZM.bl cells) [24]: 2.9 mg/L
- IC50 (Titer in TZM.bl cells) [25]: 0.213 mg/L
- IC80 (Titer in TZM.bl cells) [25]: 0.609 mg/L
- IC50 (Titer in TZM.bl cells) [26]: 1.32 mg/L
- IC80 (Titer in TZM.bl cells) [26]: 6.49 mg/L
- IC50 (Titer in TZM.bl cells) [27]: 0.041 mg/L
- IC80 (Titer in TZM.bl cells) [27]: 0.2 mg/L

Substance: 3BNC117 (antibody)
- IC50 (Titer in TZM.bl cells) [22]: 0.22 mg/L
- IC80 (Titer in TZM.bl cells) [22]: 0.85 mg/L
- IC50 (Titer in TZM.bl cells) [23]: 0.03 mg/L
- IC80 (Titer in TZM.bl cells) [23]: 0.17 mg/L
- IC50 (Titer in TZM.bl cells) [24]: 0.4 mg/L
- IC80 (Titer in TZM.bl cells) [24]: 1.79 mg/L
- IC50 (Titer in TZM.bl cells) [25]: 0.74 mg/L
- IC80 (Titer in TZM.bl cells) [25]: 3.62 mg/L
- IC50 (Titer in TZM.bl cells) [26]: 0.26 mg/L
- IC80 (Titer in TZM.bl cells) [26]: 0.82 mg/L
- IC50 (Titer in TZM.bl cells) [27]: 0.08 mg/L
- IC80 (Titer in TZM.bl cells) [27]: 0.27 mg/L
